Measurements from patent publication US9023767B2, “γ-Secretase substrates and methods of use” (Memorial Sloan-Kettering Cancer Center, priority 2009, dated 2015).
Values belong to the molecule of their own block, whether it stands above or below them. Where a SMILES comes first, the peptide text is derived from it. [ ]: non-standard residue; d: D form. The star is where a group is joined. Biotin = O=C1N[C@H]2[C@H](CS[C@H]2CCCCC(=O)*)N1; Bpa = N[C@@H](Cc1ccc(C(=O)c2ccccc2)cc1)C(=O)O; Sta = CC(C)C[C@H](N)[C@@H](O)CC(=O)O; Isovaleryl = CC(C)CC(=O)*

Tests used:
[1] = target: T1, γ-secretase (Homo sapiens (Human), UniProt P49768+Q92542); experiment: In vitro γ-secretase assay, HeLa membrane, APP-derived substrates, ECL detection; format: biochemical; details: for γ-secretase activity %: cleavage of the substrate at the Aβ40 site, HeLa membrane, G2-10 antibody; for effect on γ-secretase processing of the S3 substrate (in trans): peptide 0.1, 1 and 10 μM, S3 0.5, 1 and 2 μM; for inhibition of X40 production / suppression of Aβ production: 1 μM βCTF substrate
Protocol: The recombinant proteins were incubated with γ-secretase (40 μg/ml) in the presence or absence of 1 μM γ-secretase inhibitor L-685,458 (CAS [292632-98-5], shown below). The reaction mixture contains 0.25% 3[(3-cholamidopropyl) dimethylammonio]-2-hydroxypropanesulfonic acid (CHAPSO), 0.1 μg/μl BSA, protease inhibitor, 50 mM PIPES, pH 7.0, 5 mM MgCl2, 5 mM CaCl2 and 150 mM KCl. The reaction was incubated for 2.5 hr at 37° C. and stopped by adding RIPA buffer (150 mM NaCl, 1.0% NP-40, 0.5% sodium
[drawing 1] deoxycholate, 0.1% SDS, 50 mM Tris HCl, pH 8.0). The products were detected with various antibody combinations as previously described (Lai et al., 2003; J. Biol. Chem., 278: 22475-22481; Li et al., 2000, Proc. Natl. Acad. Sci. USA, 97: 6138-6143; Yin et al., 2007, J. Biol. Chem., 282:23639-23644) using electrochemiluminescence (ECL). The amount of product was determined using synthetic peptide or recombinant standards. The Km and Vmax were determined from the Michaelis-Menten equation Michaelis-Menten Kinetics (ν=Vm[S]/([…]; ν: initial rate; Vm: maximum velocity; Km: the Michaelis-Menten constant, S: substrate). P-values were calculated from Student t-test. 7.1.5 Cell-Based Aβ Production Assay and Western Blot

[2] = target: T1, γ-secretase; experiment: Photoaffinity labeling of γ-secretase in HeLa membrane by Aβ17-23BPA20-biotin; format: binding; details: probe 300 nM
Protocol: FIG. 4. […] Various concentrations of inhibitor were incubated with APP substrate (S4) or Notch peptide substrate containing the C-terminal biotinylated transmembrane domain of Notch1 and HeLa cell membrane in the presence of 0.25% CHAPSO. Aβ40 was detected by G2-10 antibody. The cleaved Notch product was detected by Val1744 antibody that specifically recognizes the cleaved product between Gly1743 and Val1744. Activities are expressed as percentage relative to reading that was produced in DMSO control. […] Various concentrations of S4 substrate were incubated with HeLa membrane in fixed concentrations of inhibitor as indicated. The double reciprocal velocity (1/v) and substrate concentrations (1/S) are plotted to determine the type of inhibition. […] Assays were conducted as described in FIG. 4A. […] The labeled samples were solubilized with RIPA buffer. Biotinylated proteins were captured with streptavidin-agarose and probed by immunoblotting using antibodies against biotin, PS1-CTF, PS1-NTF, Nicastrin, PEN-2 and APH-1a. HeLa cell membrane proteins were directly loaded onto lanes indicated by an arrow in the PEN-2 and APH-1a blots as positive controls. […] Upper panel: PS1-NTF; Lower panel: PS1-CTF.
The labeled proteins were eluted with 2×SDS sample buffer and analyzed with Western blotting using antibodies against the components of γ-secretase complex. Protein concentration was determined with the Dc protein assay kit (Bio-Rad)
After the photolyzed membranes were solubilized, biotinylated proteins were captured, eluted and analyzed by western blotting with antibodies against biotin, PS1, nicastrin, PEN-2 and APH-1.

[3] = target: T2, γ-secretase (Homo sapiens (Human), UniProt P49768); experiment: HTRF γ-secretase assay with Sb4 substrate; format: biochemical; details: for pilot screen result: 10 μM, 1536-well
Description: We set out to transfer the assay conditions obtained with the ECL method to an HTRF detection based format (FIG. 10b). The HTRF detection mixture consisted of mouse G2-10 antibody for recognition of the C-terminal epitope of the cleaved product, a Europium-labeled anti-mouse antibody (commonly, an antibody is conjugated with a cryptate ligand that forms a three dimensional coordination cage structure surrounding a lanthanide such as Eu^3+), along with Streptavidin conjugated to a trimeric form of the fluorescent protein allophycocyanin referred to as XL665. Cleavage of Sb4 substrate allows G2-10 mouse antibody to bind to the Aβ40-processed site on the cleaved substrate. The Steptavidin-XL665 conjugate binds directly with the biotin moiety on the N-terminal end of the Sb4 derived product. The anti-mouse Europium antibody targets to the G2-10 antibody, bringing all of these entities into close proximity. The Europium and XL665 reagents are a compatible pair of donor-acceptor fluorophores, and excitation of Europium at 337 nm results in fluorescence energy resonance transfer (FRET) to XL665 which fluoresces at 665 nm (FIG. 10b).
Human γ-secretase was prepared from HeLa cell membranes as described previously (Li et al., 2000). Briefly, HeLa cell pellet was resuspended in 1×MES buffer (50 mM MES, pH 6.0, 150 mM KCl, 5 mM CaCl2, 5 mM MgCl2) and treated with ‘complete’ protease inhibitor (Boehringer Mannheim). The resuspended pellet was mechanically homogenized by passing the cells through the French Press (Spectronic Instruments), and subsequently spun down at 800 g to remove cell debris and nuclei. Next, the supernatants were spun at 100,000 g in order to pellet the membranes. The pelleted membranes were resuspended in 1×MES buffer to approximately 12 mg/ml. This entire procedure was performed at 4° C. HeLa membranes were solubilized using 1% CHAPSO detergent in 1×MES buffer with protease inhibitors. After incubating for 1 hr at 4° C., the membrane was spun down at 100,000 g and the supernatants were collected and stored at −70° C. The collected fraction is defined as solubilized γ-secretase.
HTRF conditions were initially optimized in a 384-well format using a final volume of 20 μl. The high control for this assay was defined as the observed γ-secretase activity in the presence of 1% DMSO (v/v) and the low control as the activity observed when including 100 nM final concentration of Compound E (v/v). First, we determined a tolerable DMSO concentration that would not interfere with γ-secretase activity. Even with 3% DMSO (v/v) present in the assay mixture, there was virtually no effect on the γ-secretase activity (FIG. 11a), which was critical as delivery of library screening compounds required a final concentration of 2% DMSO (v/v) in the γ-secretase reaction. Next, we titrated the HTRF mixture components in an effort to minimize reagent costs for use in high throughput screening. […] Additionally, we varied Europium conjugated anti-mouse antibody and determined that 1 nM of this reagent in the HTRF mixture was sufficient for our assay conditions even though the signal continued to increase with higher concentrations of the anti-mouse antibody (FIG. 11c).
We have further miniaturized the HTRF assay from the established 384-well format to a 1536-well platform enabling more efficient screening of large chemical libraries. […] Based on these optimization experiments, we set our final assay conditions at 0.3 nM G2-10, 1 nM anti-mouse antibody, 15 nM Streptavidin-XL665, and proceeded with the assay at 10 μl final volume (5 μl γ-secretase mix+5 μl HTRF mix) in the 1536-well format for screening.
The pilot assay was performed in duplicate on two separate days to account for any day-to-day variability. […]

[4] = target: T2, γ-secretase; experiment: In vitro γ-secretase assay, solubilized γ-secretase, ECL; format: biochemical; details: substrate 1 μM, background with Compound E
Description: The γ-secretase cleaved Aβ product derived from C100Flag substrate was detected by a pair of antibodies (biotinylated 4G8 and ruthenylated G2-10*) while Sb4 cleaved product was detected by ruthenylated G2-10* alone (FIG. 10a) and quantified using electrochemiluminescence (ECL) technology.
An in vitro assay was based on the one previously reported by Li et al. (2000), except we utilized Sb4 substrate that eliminated the need for biotinylated antibody. […] All assays incorporate ruthenylated G2-10* antibody to detect 40-site cleavage of APP or recombinant Sb4 substrate and quantitated activity by measuring ECL.

Molecule: P3-42: synthetic P3 peptide Aβ17-42 (LVFFAEDVGSNKGAIIGLMVGGVVIA; Amyloid-beta protein 42; UniProt P05067 688-713, looked up, fragment)
- inhibition of Aβ40 production ([1]; 1, 3, 10 and 30 nM, βCTF or βCTFΔ substrate): did not inhibit

Molecule: CC(C)C[C@H](N)C(=O)N[C@H](C(=O)N[C@@H](Cc1ccccc1)C(=O)N[C@@H](Cc1ccc(C(=O)c2ccccc2)cc1)C(=O)N[C@@H](C)C(=O)N[C@@H](CCC(=O)O)C(=O)N[C@@H](CC(=O)O)C(=O)N[C@@H](CCCCNC(=O)CCCC[C@@H]1SC[C@@H]2NC(=O)N[C@@H]21)C(=O)O)C(C)C [Aβ17-23BPA^20-biotin] (H-LVF[Bpa]AEDK(Biotin)-OH; N-terminus and C-terminus assumed)
- photolabeled bands, PS1 [2]: co-migrated with PS1-CTF and PS1-NTF
- photolabeling of PEN-2 and APH1a [2]: not PEN-2 or APH1a
- photolabeling of nicastrin [2]: labels nicastrin

Molecule: AviTag-KGAIIGLMVGGVVIATVIVITLVMLKKK [S1]
- γ-secretase activity % [1]: 100 ± 4.2%

Molecule: O=C(O)CCCC[C@@H]1SC[C@@H]2NC(=O)N[C@@H]21 [biotin]
- pilot screen result [3]: active hit

Molecule: AviTag-LVFFAEDVGSNKGAIIGLMVGGVVIATVIVITLVMLKKK [S2]
- γ-secretase activity % [1]: None

Molecule: N.N.[Cl][Pt][Cl] [Cisplatin]
- pilot screen result [3]: active compound

Molecule: CC(C)CC(=O)N[C@H](C(=O)N[C@H](C(=O)N[C@@H](CC(C)C)[C@@H](O)CC(=O)N[C@@H](C)C(=O)N[C@@H](CC(C)C)[C@@H](O)CC(=O)O)C(C)C)C(C)C [Pepstatin A] (Isovaleryl-VV[Sta]A[Sta]-OH)
- pilot screen result [3]: active compound
- IC50 ([3]; dose response, read-out: IC50, HTRF assay): 6.43 µM

B2: S3: AviTag substrate from Aβ17 with C-terminal tail of APP and FLAG (protein, listed as Homo sapiens)
chain: GLNDIFEAQKIEWHELVFFAEDVGSNKGAIIGLMVGGVVIATVIVITLVMLKKKQYTSIHHGVVEVDAAVTPEERHLSKMQQNGYENPTYKFFEQMQNDYKDDDDK
- γ-secretase activity % [1]: None

The next lines start with results.

- rate of γ-secretase hydrolysis relative to αCTF-FLAG ([1]; X40 production, 4G8/G2-10 antibodies): 12 fold
Molecule: βCTF: recombinant β-secretase cleaved APP C-terminal fragment
- Vmax ([1]; Aβ40 product, 6E10/G2-10, ECL): 16 ± 1 min⁻¹ µg⁻¹
- Km ([1]; Aβ40 product, 6E10/G2-10, ECL, read-out: apparent Km): 0.47 ± 0.09 µM

- effect on γ-secretase processing of the S3 substrate (in trans) [1]: no difference
Molecule: Aβ8-16: Aβ1-16 derived synthetic peptide (SGYEVHHQK; Amyloid-beta protein 42; UniProt P05067 679-687, looked up, fragment)

- ratio of signal to background [4]: 7 to 1
Molecule: C100Flag: truncated APP protein used in previously published γ-secretase assays

- inhibition of X40 production ([1]; 0.25 μM): 24%
- suppression of Aβ production ([1]; 0.25 μM): 66%
- inhibition of X40 production ([1]; 0.5 μM): 32%
- suppression of Aβ production ([1]; 0.5 μM): 71%
- inhibition of X40 production ([1]; 1.0 μM): 60%
- suppression of Aβ production ([1]; 1.0 μM): 82%
Molecule: αCTF: recombinant α-secretase cleaved APP C-terminal fragment

- inhibition of γ-secretase activity, APP processing [1]: no inhibition
- effect on γ-secretase processing of the S3 substrate (in trans) [1]: no difference
Molecule: Aβ1-7: Aβ1-16 derived synthetic peptide (DAEFRHD; Amyloid-beta protein 42; UniProt P05067 672-678, looked up, fragment)

- ratio of signal to background [4]: 93 to 1
B1: Sb4: biotinylated AviTag-APP695(620-695) recombinant substrate (protein, listed as Homo sapiens)
chain: GLNDIFEAQKIEWHEVGSNKGAIIGLMVGGVVIATVIVITLVMLKKKQYTSIHHGVVEVDAAVTPEERHLSKMQQNGYENPTYKFFEQMQN
modifications: biotinylated
notes: biotinylated AviTag-APP695(620-695) recombinant substrate
